Measured values taken from article PMC8568920, “Serum apolipoprotein A-I potentiates the therapeutic efficacy of lysocin E against Staphylococcus aureus” (Nature Communications, 2021).

System: S. aureus
Assay: Lysocin E antimicrobial activity-enhancing activity (1 unit decreases the MIC of lysocin E to 1 µg ml−1)
Format: cell-based, Staphylococcus aureus
Conditions: ApoA species
Experimental: Calf serum (10 ml) was added to 15 ml EtOH (60% v/v) and the mixture was centrifuged for 15 min. The collected supernatant was evaporated and suspended in 8 ml Milli-Q water (fraction [fr.] II). Fr. II with formic acid (0.1%) was applied to 10 ml of ODS resin (Waters Corporation, Milford, MA, USA). After washing with 25% EtOH and then 50% EtOH, the resin was eluted with 75% EtOH containing 0.1% formic acid. The eluted sample was evaporated and dissolved in 0.8 ml buffer A (10 mM phosphate buffer [pH 7.1], 6 M urea; Fr. III). Fr. III was applied to the Superose 12 10/300 GL gel filtration column (GE Healthcare) and eluted with the AKTApurifier system (GE Healthcare). The elution was performed in buffer A at a flow rate of 0.5 ml min^−1 and 60 fractions (0.5 ml per fr.) were collected in 2-ml tubes. All fractions, except for Fr. I, were dialysed in 10 mM phosphate buffer (pH 7.1) before assessment of their activities. Protein concentrations were measured using Coomassie Plus^TM protein assay reagent (Thermo Fisher) with bovine serum albumin as the standard. Amino acid sequence analysis was performed by in-gel digestion and mass spectrometric analysis. One unit was defined as the activity that decreases the MIC of lysocin E to 1 µg ml^−1.

B1: rmApoA-I: recombinant mouse ApoA-I (protein, UniProt Q00623 25-264, looked up)
Apolipoprotein A-I: DEPQSQWDKVKDFANVYVDAVKDSGRDYVSQFESSSLGQQLNLNLLENWDTLGSTVSQLQERLGPLTRDFWDNLEKETDWVRQEMNKDLEEVKQKVQPYLDEFQKKWKEDVELYRQKVAPLGAELQESARQKLQELQGRLSPVAEEFRDRMRTHVDSLRTQLAPHSEQMRESLAQRLAELKSNPTLNEYHTRAKTHLKTLGEKARPALEDLRHSLMPMLETLKTQVQSVIDKASETLTAQ
Specific activity for lysocin E antimicrobial enhancing activity: 6400 unit mg-1 protein
